Reference: patent US9265845B2, “Imaging methods using engineered integrin binding peptides” (The Board of Trustees of the Leland Stanford Junior …, priority 2006, dated 2016)
Where two headings read alike, the source gives them in different places. Positions of bridges follow the written chain, without caps; N, C: chain ends. Residues, ends and D or L forms follow the SMILES beside them. *: point of attachment. DOTA = O=C(O)CN1CCN(CC(=O)O)CCN(CC(=O)*)CCN(CC(=O)O)CC1

How the values were obtained:
αvβ3 integrin = αvβ3 integrin (Homo sapiens, UniProt P05106+P06756); assay: Yeast-displayed peptide binding to soluble αvβ3 integrin, flow cytometry; conditions: yeast-displayed peptides
Sequence of αvβ3 integrin (P06756 31-889 limits assumed): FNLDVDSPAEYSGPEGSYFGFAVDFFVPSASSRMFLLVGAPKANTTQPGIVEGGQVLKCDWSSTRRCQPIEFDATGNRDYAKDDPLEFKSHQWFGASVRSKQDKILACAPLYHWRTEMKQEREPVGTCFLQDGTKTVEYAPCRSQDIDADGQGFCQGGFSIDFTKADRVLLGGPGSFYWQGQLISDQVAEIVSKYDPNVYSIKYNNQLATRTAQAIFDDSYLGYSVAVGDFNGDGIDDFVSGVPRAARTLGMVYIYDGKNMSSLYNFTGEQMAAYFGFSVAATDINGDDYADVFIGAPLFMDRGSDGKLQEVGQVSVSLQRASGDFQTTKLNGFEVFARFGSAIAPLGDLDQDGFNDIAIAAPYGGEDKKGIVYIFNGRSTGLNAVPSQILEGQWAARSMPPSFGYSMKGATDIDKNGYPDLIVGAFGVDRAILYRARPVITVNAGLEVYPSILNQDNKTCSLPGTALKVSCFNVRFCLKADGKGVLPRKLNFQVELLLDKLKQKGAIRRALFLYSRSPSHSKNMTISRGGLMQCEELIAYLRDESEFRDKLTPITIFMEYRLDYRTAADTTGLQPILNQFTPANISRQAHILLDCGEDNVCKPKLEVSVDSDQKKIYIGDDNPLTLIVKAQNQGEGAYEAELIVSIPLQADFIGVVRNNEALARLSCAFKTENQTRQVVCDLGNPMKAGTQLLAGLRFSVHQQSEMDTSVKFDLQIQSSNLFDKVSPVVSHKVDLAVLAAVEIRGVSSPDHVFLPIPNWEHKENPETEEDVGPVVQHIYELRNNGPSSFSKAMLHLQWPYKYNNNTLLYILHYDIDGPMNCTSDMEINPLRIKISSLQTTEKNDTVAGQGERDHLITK
Sequence of αvβ3 integrin (P06756 891-1048 partner limits assumed): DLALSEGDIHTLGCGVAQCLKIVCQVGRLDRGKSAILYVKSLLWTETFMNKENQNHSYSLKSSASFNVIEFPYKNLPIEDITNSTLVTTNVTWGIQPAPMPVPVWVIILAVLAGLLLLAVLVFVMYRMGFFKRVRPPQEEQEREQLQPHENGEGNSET
Sequence of αvβ3 integrin (P05106 27-788): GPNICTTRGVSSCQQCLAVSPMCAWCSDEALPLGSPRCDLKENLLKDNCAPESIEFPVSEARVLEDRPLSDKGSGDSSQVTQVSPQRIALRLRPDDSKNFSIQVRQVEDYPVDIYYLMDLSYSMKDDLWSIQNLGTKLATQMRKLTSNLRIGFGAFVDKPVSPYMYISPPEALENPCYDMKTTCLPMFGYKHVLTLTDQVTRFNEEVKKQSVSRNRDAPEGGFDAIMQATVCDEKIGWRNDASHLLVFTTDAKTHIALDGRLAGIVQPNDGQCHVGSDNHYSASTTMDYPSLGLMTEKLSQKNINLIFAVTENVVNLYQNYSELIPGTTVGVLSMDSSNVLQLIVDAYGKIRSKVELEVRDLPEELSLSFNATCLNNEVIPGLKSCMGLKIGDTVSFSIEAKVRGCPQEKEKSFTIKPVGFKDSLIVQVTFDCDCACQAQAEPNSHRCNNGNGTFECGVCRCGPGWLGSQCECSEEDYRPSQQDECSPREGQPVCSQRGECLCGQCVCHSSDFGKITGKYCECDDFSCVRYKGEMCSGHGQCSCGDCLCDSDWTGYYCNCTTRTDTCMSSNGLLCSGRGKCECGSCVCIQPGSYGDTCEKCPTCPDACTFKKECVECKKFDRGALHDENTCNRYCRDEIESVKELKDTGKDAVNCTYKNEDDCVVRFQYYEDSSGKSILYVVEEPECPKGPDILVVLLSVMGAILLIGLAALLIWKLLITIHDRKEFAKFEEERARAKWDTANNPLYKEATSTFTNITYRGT
Method: The yeast display construct shown in FIG. 1A has the general orientation: Aga2-HA-engineered knottin—c-myc epitope, with the c-myc epitope at the carboxy terminus of the peptide. […] Bound integrin is detected with an anti-integrin antibody, labeled with FITC.
Below is a typical protocol to label a yeast library samples for sorting by flow cytometry (FACS): • 1. Want 2×10^6 cells, OD600 of […] • 2. Add 1 mL PBS/BSA (phosphate buffered saline containing 1 mg/mL bovine serum albumin) to wash cells • 3. Spin down cells 3 min at 8000 RPM • 4. Remove supernatant using vacuum • 5. Re-suspend in 40 μL PBS/BSA containing proper amount of integrin (100 nM [2.5 μL of stock αvβ3]; no anti-cmyc at this point) • 6. Incubate for 1.5 h at r.t (w/tumbling) • 7. Add 1:250 dilution of (chick anti-cmyc) to labeling solution • 8. […] Incubate 1 h at 4° C. (w/tumbling) • 10. Keep on ice after this step. • 11. Spin down cells 3 min at 8000 RPM, 4° C. and vacuum supernatant • 12. Repeat wash steps 2-4 • 13. Re-suspend in 40 μL PBS/BSA containing proper amount of secondary labels (secondary labeling is simultaneous) • i. Anti-integrin Ab (FITC conj): 1:25 dilution+Anti-chick (Alexa 555): 1:100 dilution • ii. Positive control: Anti-chick (Alexa 555): 1:100 dilution (for FACS compensation) • iii. Positive control: Anti-chick (Alexa 488): 1:100 dilution (for FACS compensation) • 14. Incubate on ice 30 min and keep in dark (lid on ice bucket) • 15. Spin down cells at 3 min at 8000 RPM, 4° C. and vacuum supernatant • 16. Repeat steps 2-4: Add 1 mL PBS/BSA, pellet cells, vacuum supernatant • 17. Leave pelleted cells on ice until use. Fluorescent Cell Sorting
Commercially available flow cytometers can measure fluorescence emissions at the single-cell level at four or more wavelengths, at a rate of approximately 50,000 cells per second (Ashcroft and Lopez, 2000). Typical flow cytometry data are shown in FIG. 4-7, in which yeast have been labeled with two different color fluorescent probes to measure protein expression levels and bound soluble ligand (in this case integrin receptor). A ‘diagonal’ population of cells results due to variation in protein expression levels on a per cell basis: cells that express more protein will bind more ligand. The equilibrium binding constant (Kd) can be determined by titration of soluble ligand, and the dissociation rate constant (koff) can be measured through competition binding of unlabeled ligand. With yeast, a monodispersity of tethered proteins exists over the cell surface, and soluble ligand are used for binding and testing, such that avidity effects are not observed, unlike other display methods using immobilized ligands. To date, the properties of most proteins expressed on the yeast cell surface mimic what is seen in solution in terms of stability and binding affinity (Bader et al., 2000; Feldhaus et al., 2003; Holler et al., 2000; VanAntwerp and Wittrup, 2000). See, also, Weaver-Feldhaus et al., “Directed evolution for the development of conformation-specific affinity reagents using yeast display,” Protein Engineering Design and Selection Sep. 26, 2005 18(11):527-536.
Cell sorting was carried out on a FACSVantage (BD Biosciences) multiparameter laser flow cytometer and cell sorter. Before sorting, fluorescent staining was carried out as described above, so that analysis of integrin binding and c-myc expression levels were detected, as described above. […]

U87MG tumor = assay: MicroPET imaging and biodistribution of radiolabeled peptides in U87MG tumor-bearing mice; format: in vivo, mouse; conditions: radiolabeled peptides, U87MG tumor-bearing mice
Method: (§1) MicroPET imaging of tumor-bearing mice is performed on a microPET R4 rodent model scanner (Concorde Microsystems Inc, Knoxyille, Tenn.). U87MG tumor bearing mice are injected with PET imaging agent via the tail vein. At various times post injection, the mice are anesthetized with 2% isoflurane, and 10 min static scans are obtained. Images are reconstructed by a two-dimensional ordered expectation maximum subset algorithm as previously described. Regions of interest (ROI) are drawn over the tumor on decay corrected whole body images and ROI derived % injected dose per gram of tissue is determined. Statistical analysis is performed using the student's t-test for unpaired data. A 95% confidence level is used to determine statistical significance.
(§2) Female athymic mice bearing U87MG tumors were injected with 80-150 μCi of ^64Cu-DOTA-knottin 2.5D or 7-9 μCi of [^18F]-FB-E[knottin 2.5D]. Static images were taken at various timepoints post injection using a microPET R4 rodent model scanner (Concorde Microsystems Inc, Knoxyille, Tenn.). […] Uptake was also observed in the kidney as both probes cleared through the bladder.
(§3) Mice are sacrificed by exanguinations at various time points postinjection. Blood, tumor and the major organs and tissues are collected, wet-weighed and measured in a γ-counter. The % injected dose per gram is determined for each sample. For each mouse, radioactivity of the tissue samples is calibrated against a known aliquot of the injectate. Values are reported as the mean±standard deviation.
(§4) The following Table 10 quantifies the ^64Cu-DOTA knottin uptake by direct tissue sampling of the mice up to 24 hours post injection and is reported in % ID (percent injected dose)/gram. Similar results were obtained with [^18F]-FB-E[knottin 2.5D].
(§5) A U87MG glioblastoma xenograft mouse model was used. U87MG cells were maintained at 37° C. in a humidified atmosphere containing 5% CO2 in Dulbecco's modified eagle medium, 10% heat-inactivated fetal bovine serum, and penicillin-streptomycin (all from Invitrogen). Animal procedures were carried out according to a protocol by Stanford University Administrative Panels on Laboratory Animal Care. Female athymic nude mice (nu/nu), obtained at 4-6 weeks of age (Charles River Laboratories, Inc.), were injected subcutaneously in the right or left shoulder with 2×10^7 U87MG glioblastoma cells suspended in 100 μL of PBS. Mice were used for in vivo imaging studies when their tumors reached approximately 8 to 10 millimeters in diameter.
(§6) U87MG tumor-bearing mice (n=3 or more for each probe) were injected with ˜100 μCi of ^64Cu-DOTA-conjugated peptides via the tail vein and imaged with a microPET R4 rodent model scanner (Siemens Medical) using 3 or 5 min static scans. […] Images were reconstructed by a two dimensional ordered expectation maximum subset algorithm and calibrated as previously described (Wu, Y, Zhang, X, Xiong, Z, et al. microPET imaging of glioma integrin {alpha}v{beta}3 expression using (64)Cu-labeled tetrameric RGD peptide. J Nucl Med 2005; 46:1707-18). ROIs were drawn over the tumor on decay-corrected whole body images using ASIPro VM software (Siemens Medical). The mean counts per pixel per minute were obtained from the ROI and converted to counts per milliliter per minute with a calibration constant. ROIs were converted to counts/g/min, and % ID/g values were determined assuming a tissue density of 1 g/mL. No attenuation correction was performed.

[1] = as above; format: in vivo, mouse; conditions: female, athymic nude (nu/nu), mouse, in vivo, iv, total radioactivity; for tissue uptake at 0.5 h: 0.5 h post injection; for tissue uptake at 2 h: 2 h post injection; for tissue uptake at 4 h: 4 h post injection; for tissue uptake at 25 h: 25 h post injection
Method: as §1, §2, §3, §4, §5, §6

[2] = direct tissue sampling, read-out: Kidney uptake, mean
[3] = direct tissue sampling, read-out: Liver uptake, mean
[4] = direct tissue sampling, read-out: Muscle uptake, mean
[5] = direct tissue sampling, read-out: Tumor uptake, mean

Compound: CVRLHESCLGQQVPCCDPCATCYCTGRGDSPASCYCRKLGTAMNPCSRT [RGD-AgRP#3]
- integrin binding compared in words (αvβ3 integrin): RGD-AgRP #1<#2, <#3

Compound: RGD-EETI#2: EETI-II scaffold with native fibronectin RGD loop, RGD at insert positions 3-5, SEQ ID NO: 20 (GCTGRGDSPASSKCKQDSDCLAGCVCGPNGFCG)
- integrin binding compared in words (αvβ3 integrin): approximately half the affinity of RGD-EETI#3

Compound: GCVRLHESCLGQQVPCCDPCATCYCRGDCYCRKLGTAMNPCSRT [RGD-AgRP#1]
- integrin binding compared in words (αvβ3 integrin): RGD-AgRP #1<#2, <#3

Compound: CC(C)[C@@H]1NC(=O)[C@@H]2CSSC[C@H](NC(=O)CNC(=O)CN3CCN(CC(=O)O)CCN(CC(=O)O)CCN(CC(=O)O)CC3)C(=O)N3CCC[C@H]3C(=O)N[C@@H](CCC(N)=O)C(=O)NCC(=O)N[C@@H](CCCNC(=N)N)C(=O)NCC(=O)N[C@@H](CC(=O)O)C(=O)N[C@@H](Cc3c[nH]c4ccccc34)C(=O)N[C@@H](C)C(=O)N3CCC[C@H]3C(=O)N[C@@H]([C@@H](C)O)C(=O)N[C@@H](CO)C(=O)N[C@H]3CSSC[C@H](NC1=O)C(=O)NCC(=O)N1CCC[C@H]1C(=O)N[C@@H](CC(N)=O)C(=O)NCC(=O)N[C@@H](Cc1ccccc1)C(=O)N[C@H](C(=O)NCC(=O)O)CSSC[C@H](NC(=O)[C@H](CC(=O)O)NC(=O)[C@H](CO)NC(=O)[C@H](CC(=O)O)NC(=O)[C@H](CCC(N)=O)NC(=O)[C@H](CO)NC3=O)C(=O)N[C@@H](CCCNC(=N)N)C(=O)N[C@@H](C)C(=O)NCC(=O)N2 [^64Cu-DOTA-knottin 2.5D, metal not drawn] ({DOTA}-GCPQGRGDWAPTSCSQDSDCRAGCVCGPNGFCG-OH; disulfide 2-24, 14-26, 20-32; C-terminus assumed)
- PET tumor targeting / imaging signal, in words (U87MG tumor): clearly targeted the U87MG tumor
- tissue uptake at 0.5 h [1, 2]: 7.26 %ID/g
- tissue uptake at 0.5 h [1, 3]: 1.39 %ID/g
- tissue uptake at 0.5 h [1, 4]: 0.45 %ID/g
- tissue uptake at 0.5 h [1, 5]: 4.94 %ID/g
- tissue uptake at 1 h ([1]; 1 h post injection, direct tissue sampling, read-out: Kidney uptake, mean): 4.06 %ID/g
- tissue uptake at 1 h ([1]; 1 h post injection, direct tissue sampling, read-out: Liver uptake, mean): 1.29 %ID/g
- tissue uptake at 1 h ([1]; 1 h post injection, direct tissue sampling, read-out: Muscle uptake, mean): 0.28 %ID/g
- tissue uptake at 1 h ([1]; 1 h post injection, direct tissue sampling, read-out: Tumor uptake, mean): 4.47 %ID/g
- tissue uptake at 2 h [1, 2]: 3.45 %ID/g
- tissue uptake at 2 h [1, 3]: 0.98 %ID/g
- tissue uptake at 2 h [1, 4]: 0.07 %ID/g
- tissue uptake at 2 h [1, 5]: 2.89 %ID/g
- tissue uptake at 4 h [1, 2]: 3.26 %ID/g
- tissue uptake at 4 h [1, 3]: 0.92 %ID/g
- tissue uptake at 4 h [1, 4]: 0.06 %ID/g
- tissue uptake at 4 h [1, 5]: 2.24 %ID/g
- tissue uptake at 25 h [1, 2]: 1.75 %ID/g
- tissue uptake at 25 h [1, 3]: 0.53 %ID/g
- tissue uptake at 25 h [1, 4]: 0.03 %ID/g
- tissue uptake at 25 h [1, 5]: 1.31 %ID/g

Compound: GCVRLHESCLGQQVPCCDPCATCYCTGRGDSCYCRKLGTAMNPCSRT [RGD-AgRP#2]
- integrin binding compared in words (αvβ3 integrin): RGD-AgRP #1<#2, <#3

Compound: N=C(N)NCCC[C@@H]1NC(=O)[C@H](CCCCN)NC(=O)[C@@H](Cc2ccc(O)cc2)NC(=O)[C@H](CC(=O)O)NC(=O)CNC1=O [c(RGDyK), reference compound]
- tissue uptake at 1 h ([1]; Tumor uptake): 2.32 ± 0.55 %ID/g
- tissue uptake at 1 h ([1]; non-specific liver uptake): ~4 %ID/g
